Among the data in paper PMC11822739 are stoichiometry N and stoichiometry N (x the molar mass of peak 3) values, retold here.

Several values for one entry are separate records, joined by “and”; a condition that tells them apart may be missing. Equal entries are not always repeated. Where two headings read alike, the source gives them in different places.

Test [1] addresses HBV truncated core protein CP149 dimer (hepatitis B virus). Kind of test: SEC-MALS; SEC-UV-MALS-RI; 7.8 x 300 mm 1000 Å 3 μm column; 20 mM phosphate, 276 mM NaCl, 5.4 mM KCl, pH 7.4 (2x dPBS); flow rates 0.29 and 1.15 mL/min; 20 μL of 2 mg/mL Qβ, 14.4 μL of 0.67 mg/mL HBV VLPs with residual CP149 dimer; dn/dc 0.185 mL/mg. A general note: Size exclusion chromatography separates by hydrodynamic size, large species first.

Test [2] has the same target. As to the kind of experiment: SEC + native MS.
For test [3], the target named is bovine thyroglobulin (bovine) (UniProt P01267). Kind of test: SEC + native MS.
Test [4] shares this target. Kind of test: SEC + native MS. The source holds these as a separate data set.
Test [5] deals with bacteriophage Qβ virus-like particles (bacteriophage Qβ). Kind of test: SEC-MALS; SEC-UV-MALS-RI; 7.8 x 300 mm 1000 Å 3 μm column; 20 mM phosphate, 276 mM NaCl, 5.4 mM KCl, pH 7.4 (2x dPBS); flow rates 0.29 and 1.15 mL/min; 20 μL of 2 mg/mL Qβ, 14.4 μL of 0.67 mg/mL HBV VLPs with residual CP149 dimer; dn/dc 0.185 mL/mg.

Regarding “HBV truncated core protein CP149 dimer (domain or fragment)”, the stoichiometry N (in general, the number of molecules, sites or subunits per partner or assembly) was 120 CP dimers and 90 CP dimers in test [1]; 120 CP dimers and 90 CP dimers in test [2].
Turning to bovine thyroglobulin, P01267 20-2769, the stoichiometry N was 4 and 3 in test [3]; 2 in test [4].
“bacteriophage Qβ virus-like particles (complex)”: the stoichiometry N (x the molar mass of peak 3) in test [5] was 4 and 2.
